From US20110092413A1, “Albumin-Fused Kunitz Domain Peptides” (Novozymes Biopharma DK A/S, priority 2002, published 2011)
pKi: −log10 of the molar value.

What was measured:
Serum half-time of DX-88 = details: in vivo
[1] = DX-88 tested in the clinic for treatment of hereditary angioedema (HAE); format: in vivo, human
human plasma kallikrein = human plasma kallikrein (Homo sapiens, UniProt P03952); experiment: DX-88 inhibition of human plasma kallikrein; format: biochemical
[2] = target: T1, human neutrophil elastase (Homo sapiens, UniProt P08246); details: Table 4, Biological Activity; read-out: Inhibition of human neutrophil elastase, Ki; cited from earlier work
T1 sequence (P08246 30-267): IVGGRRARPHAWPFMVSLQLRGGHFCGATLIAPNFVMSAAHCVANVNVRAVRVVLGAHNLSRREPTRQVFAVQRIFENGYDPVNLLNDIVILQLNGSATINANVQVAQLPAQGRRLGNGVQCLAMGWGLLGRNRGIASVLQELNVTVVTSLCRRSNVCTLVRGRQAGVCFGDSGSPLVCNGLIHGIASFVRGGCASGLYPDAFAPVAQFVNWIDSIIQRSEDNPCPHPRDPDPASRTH

[3] = Pharmacokinetic study in rabbits: plasma clearance of 125I-labeled protein, SEC of plasma
Excerpt: (§1) After radiolabeling, the two labeled protein preparations were purified from unbound label by size exclusion chromatography (SEC). Fractions from the SEC column having the highest radioactivity were pooled. The purified, radiolabeled preparations were characterized for specific activity by scintillation counting and for purity by SEC using a Superose-12 column equipped with an in-line radiation detector.
(§2) New Zealand White rabbits (ca. 2.5 Kg) were used for clearance measurements, with one animal each used for of the two labeled protein preparations. The radiolabeled preparation was injected into the animal via an ear vein. One blood sample was collected per animal per time point with early time points at approximately 0, 7, 15, 30, and 90 minutes and later time points at 4, 8, 16, 24, 48, 72, 96, 144, 168, and 192 hours. Samples (about 0.5 ml) were collected into anticoagulant (EDTA) tubes. Cells were separated from the plasma/serum fraction by centrifugation. The plasma fraction was divided into two aliquots. One plasma aliquot was stored at −70° C. and the other aliquot was kept at 4° C. for immediate analyses. Sample analyses included radiation counting for clearance rate determinations and SEC chromatography for in vivo stability.

[4] = rabbit, in vivo
Excerpt: as §1, §2

Pseudomonas aeruginosa = details: rat model of CF, after seven days of treatment (Cantin and Woods 1999); cited from earlier work
[5] = about 840 mg BPTI, 80 open-heart surgery patients (Fraedrich et al.); cited from earlier work

human plasma kallikrein, sequence (P03952 391-638 limits assumed): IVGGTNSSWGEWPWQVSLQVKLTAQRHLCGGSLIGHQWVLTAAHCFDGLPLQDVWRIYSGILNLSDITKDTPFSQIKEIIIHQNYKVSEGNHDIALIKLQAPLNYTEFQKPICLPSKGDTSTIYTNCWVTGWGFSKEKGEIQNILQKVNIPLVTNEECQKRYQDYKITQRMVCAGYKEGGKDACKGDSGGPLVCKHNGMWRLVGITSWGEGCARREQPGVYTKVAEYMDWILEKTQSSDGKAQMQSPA
human plasma kallikrein, sequence (P03952 20-390 partner limits assumed): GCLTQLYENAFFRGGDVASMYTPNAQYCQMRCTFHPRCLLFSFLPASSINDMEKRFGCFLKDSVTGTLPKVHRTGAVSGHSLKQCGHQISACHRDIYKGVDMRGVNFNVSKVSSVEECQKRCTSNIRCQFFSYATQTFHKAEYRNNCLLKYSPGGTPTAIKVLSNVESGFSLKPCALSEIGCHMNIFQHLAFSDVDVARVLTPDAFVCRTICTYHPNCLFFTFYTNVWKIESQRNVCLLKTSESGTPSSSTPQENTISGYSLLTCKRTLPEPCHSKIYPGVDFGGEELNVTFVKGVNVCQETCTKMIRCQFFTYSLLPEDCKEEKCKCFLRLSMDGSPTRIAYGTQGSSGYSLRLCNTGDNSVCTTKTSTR

DX-88: Kunitz domain derived from the first Kunitz domain of human LACI, inhibits human plasma kallikrein, SEQ ID NO:48 (EAMHSFCAFKADDGPCRAAHPRWFFNIFTRQCEEFIYGGCEGNQNRFESLEECKKMCTRD; Description of Sequence DX-88 Kunitz domain peptide)
serum half-time (Serum half-time of DX-88): not more than 1 hour
initial clinical data in HAE [1]: safe and effective
pKi (human plasma kallikrein): ~10.40

DX-890: Kunitz domain peptide, inhibitor of human neutrophil elastase, SEQ ID NO:20 (EACNLPIVRGPCIAFFPRWAFDAVKGKCVLFPYGGCQGNGNKFYSEKECREYCGVP; Description of Sequence DX-890 Kunitz domain peptide)
pKi [2]: ~11.30
in vivo stability by SEC analysis of plasma ([3]; FIG. 6): relatively rapid association of label with higher molecular weight plasma components
T1/2β ([3]; restated in hours): 2.75 h
% α [4]: 75%
% β [4]: 25%

alpha1 antitrypsin
bacterial counts (Pseudomonas aeruginosa): 0.2±0.4

bovine pancreatic trypsin inhibitor [BPTI]
decrease of mean amount transfused [5]: 74%
reduction of blood loss [5]: almost half
